In experiment [1] the target is peptide 6, SGSG … (Staphylococcus aureus). Description: ELISA, biotinylated peptides on streptavidin coated plates. In general terms: ELISA stands for enzyme-linked immunosorbent assay.
Experiment [2] deals with peptide 12, SGSG … (Staphylococcus aureus). Described as above.
Experiment [3] addresses peptide 13, SGSG … (Staphylococcus aureus). The description is as above.
Experiment [4] has as its target peptide 14, SGSG … (Staphylococcus aureus). The description is as above.
The target in experiment [5] is peptide 18, SGSG … (Staphylococcus aureus). The description is as above.
The target of experiment [6] is peptide 19, SGSG … (Staphylococcus aureus). The description is as above.
Experiment [7] has as its target peptide 20, SGSG … (Staphylococcus aureus). Described as above.
Experiment [8] deals with peptide 26, […] (Staphylococcus aureus). The experiment is described as above.
Experiment [9] deals with T1, full length DNABII protein, HU-beta, from Staphylococcus aureus (Staphylococcus aureus, UniProt Q5HFV0 1-90).
T1 construct: mature; also called HU Sa; HU-beta of S. aureus; not shown: poly-histidine tag
T1 sequence: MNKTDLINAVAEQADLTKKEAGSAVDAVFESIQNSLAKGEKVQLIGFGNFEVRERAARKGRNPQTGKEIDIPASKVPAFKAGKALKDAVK
Description: adsorption ELISA, antigen coated; given as 'affinity', estimated as half-maximal binding concentration.

Experiment [10] concerns the target T2, DNABII protein from Haemophilus influenzae (IHF) (Haemophilus influenzae).
T2 construct: mature; also called H. influenzae; IHF from Haemophilus influenzae
Description: adsorption ELISA, antigen coated; printed as 'Affinity (pM)', half-maximal binding concentration.

Experiment [11] has as its target T3, DNABII protein from Acinetobacter baumannii (Acinetobacter baumannii).
T3 construct: mature
The experiment is described as above.

Experiment [12] concerns the target T4, DNABII protein from Pseudomonas aeruginosa (IHF-alpha by the legend of FIGS. 7A-7C) (Pseudomonas aeruginosa, UniProt Q51472 2-100).
T4 construct: mature; also called Pa; P. aeruginosa; not shown: poly-histidine tag
T4 sequence: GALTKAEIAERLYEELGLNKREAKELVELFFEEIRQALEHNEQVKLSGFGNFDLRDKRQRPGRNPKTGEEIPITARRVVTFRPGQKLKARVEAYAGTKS
Description: ELISA at pH 2.5; printed as 'Affinity (nM)'.

Experiment [13] has as its target T5, DNABII protein from Klebsiella pneumoniae (IHF; IHF-alpha by the legend of FIGS. 7A-7C) (Klebsiella pneumoniae, UniProt A6TAI1 1-99).
T5 construct: also called Kp; K. pneumoniae
T5 sequence: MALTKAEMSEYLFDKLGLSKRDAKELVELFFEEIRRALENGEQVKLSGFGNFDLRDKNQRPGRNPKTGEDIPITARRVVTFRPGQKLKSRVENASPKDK
Description: ELISA at pH 2.5; printed as 'Affinity (nM)'.

Experiment [14] concerns the target T1, full length DNABII protein, HU-beta, …. Description: ELISA at pH 2.5; printed as 'Affinity (nM)'.
In experiment [15] the target is T4, DNABII protein from Pseudomonas …. Description: ELISA at pH 3.5; printed as 'Affinity (nM)'.
The target of experiment [16] is T5, DNABII protein from Klebsiella …. Description: ELISA at pH 3.5; printed as 'Affinity (nM)'.
In experiment [17] the target is T1, full length DNABII protein, HU-beta, …. Description: ELISA at pH 3.5; printed as 'Affinity (nM)'.
For experiment [18], the target named is T4, DNABII protein from Pseudomonas …. Description: ELISA at pH 4.5; printed as 'Affinity (nM)'.
In experiment [19] the target is T5, DNABII protein from Klebsiella …. Description: ELISA at pH 4.5; printed as 'Affinity (nM)'.
Experiment [20] addresses T1, full length DNABII protein, HU-beta, …. Description: ELISA at pH 4.5; printed as 'Affinity (nM)'.
Experiment [21] concerns the target T4, DNABII protein from Pseudomonas …. Description: ELISA at pH 5.5; printed as 'Affinity (nM)'.
In experiment [22] the target is T5, DNABII protein from Klebsiella …. Description: ELISA at pH 5.5; printed as 'Affinity (nM)'.
Experiment [23] addresses T1, full length DNABII protein, HU-beta, …. Description: ELISA at pH 5.5; printed as 'Affinity (nM)'.
Experiment [24] deals with T4, DNABII protein from Pseudomonas …. Description: ELISA at pH 6.5; printed as 'Affinity (nM)'.
The target of experiment [25] is T5, DNABII protein from Klebsiella …. Description: ELISA at pH 6.5; printed as 'Affinity (nM)'.
Experiment [26] concerns the target T1, full length DNABII protein, HU-beta, …. Description: ELISA at pH 6.5; printed as 'Affinity (nM)'.
Experiment [27] concerns the target T4, DNABII protein from Pseudomonas …. Description: ELISA at pH 7.5; printed as 'Affinity (nM)'.
Experiment [28] deals with T5, DNABII protein from Klebsiella …. Description: ELISA at pH 7.5; printed as 'Affinity (nM)'.
For experiment [29], the target named is T1, full length DNABII protein, HU-beta, …. Description: ELISA at pH 7.5; printed as 'Affinity (nM)'.

T2 sequence (P43723 whole entry): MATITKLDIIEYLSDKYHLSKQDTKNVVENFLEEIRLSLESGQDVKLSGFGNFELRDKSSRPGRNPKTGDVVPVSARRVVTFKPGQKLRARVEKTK
T3 sequence (B7I698 whole entry): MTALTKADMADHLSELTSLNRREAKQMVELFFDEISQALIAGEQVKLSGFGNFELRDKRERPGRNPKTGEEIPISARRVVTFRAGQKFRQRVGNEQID

B1: TRL1335 (antibody, V domains shown)
VH: QVQLVESGAEVKKPGESLKISCKGSGYNFTSYWIGWVRQMPGKGLEWMGVIYPDDSDTRYSPSFKGQVTISADKSISTAFLQWSSLKASDTAVYHCARPPDSWGQGTLVTVSS
VL: DIVMTQSPATLSVSPGERATLSCRASQSVSSNLAWYQQKPGLAPRLLIVGASNRATGIPARFSGSGSGTEFTLTISSLQSEDFAFYYCQQYNNWPFTFGPGTKVDVKR
As for B1, the binding result in experiment [1], in [2], in [3], in experiment [4], in experiment [5] and in experiment [6] was “no binding” each time. Further, the binding result in experiment [7] and in experiment [8] was “no binding” in each case.

B2: TRL1338 (antibody, V domains shown)
VH: QLTLRESGPTLVKPTQTLTLTCTFSGFSLSTNGVGVGWIRQPPGKALEWLAIIYWDDDKRYSPSLKSRLTITKDTSKNQVVLTLTNMDPVDTGTYYCAHILGASNYWTGYLRYYFDYWGQGTLVTVST
VL: DIEMTQSPSVSVSPGQTARITCSGEPLAKQYAYWYQQKSGQAPVVVIYKDTERPSGIPERFSGSSSGTTVTLTISGVQAEDEADYHCESGDSSGTYPVFGGGTKLTVL
Usually EC50 stands for the concentration giving half of the maximal effect. As for B2, the EC50 in experiment [9] was 42 nM.

B3: TRL1337 (antibody, V domains shown)
VH: QVQLLESGPGLVKPSETPSLTCTVSGGSIRSYYWSWIRQPPGKGLEWIGYIYYSGSTNYNPSLKSRVTISVDMSKNQFSLKLSSVTAADTAMYYCARVYGGSGSYDFDYWGQGTLVTVSS
VL: DIVLTQSPSASGSPGQSVTISCTGTSSDVGGYNYVSWYQQLPGKAPKLMIYEVTKRPSGVPDRFSGSKSGNTASLTVSGLQAEDEADYYCSSFAGSNNHVVFGGGTKLTVL
B3: the EC50 in experiment [9] is 6 nM.

B4: TRL1330 (antibody, V domains shown)
VH: QVQLVESGTEVKNPGASVKVSCTASGYKFDEYGVSWVRQSPGQGLEWMGWISVYNGKTNYSQNFQGRLTLTTETSTDTAYMELTSLRPDDTAVYYCATDKNWFDPWGPGTLVTVSS
VL: DIVLTQSPSASGSPGQSITISCTGTNTDYNYVSWYQHHPGKAPKVIIYDVKKRPSGVPSRFSGSRSGNTATLTVSGLQTEDEADYYCVSYADNNHYVFGSGTKVTVL
With B4, the EC50 amounted to 0.026 nM in experiment [10] and 0.017 nM in experiment [11].

B5: TRL1361 (antibody, V domains shown)
VH: QVQLVESGGGLAQPGGSLRLSCAASGFIFNTYAMGWVRQAPGKGLEWVSTVSAPGAGTYYTDSVKGRFIISRDNSKNILYLQMNRLRVEDTAVYYCARDQGGPAVAGARIFDYWGQGALVTVSS
VL: DIVLTQSPLSLSVTPGQPASISCKSSQSLLRSDGKTYLCWYLQKPGQPPQLLIYEVSNRVSGVPDRFSGSGSGTDFTLKISRVEAEDVGVYYCMQSIQLRTFGQGTKVEIKR
On to B5, for which, in [9], the EC50 is 6.6 nM.

B6: TRL1068 (antibody, V domains shown)
VH: QVQLVESGPGLVKPSETLSLTCRVSGDSNRPSYWSWIRQAPGKAMEWIGYVYDSGVTIYNPSLKGRVTISLDTSKTRFSLKLTSVIAADTAVYYCARERFDRTSYKSWWGQGTQVTVSS
VL: DIVLTQAPGTLSLSPGDRATLSCRASQRLGGTSLAWYQHRSGQAPRLILYGTSNRATDTPDRFSGSGSGTDFVLTISSLEPEDFAVYYCQQYGSPPYTFGQGTTLDIK
As to B6, the EC50 was 2.1 nM in [12]; 2.6 nM in [13]; 3.5 nM in [14]; 0.26 nM in experiment [15]; 3 nM in experiment [16]; 0.36 nM in [17]. In addition, the EC50 in experiment [18] was 0.009 nM; in experiment [19], 0.05 nM; in experiment [20], 0.012 nM; in [21], 0.006 nM; in experiment [22], 0.009 nM; in [23], 0.012 nM. The EC50 in experiment [24] was 0.005 nM; in [25], 0.006 nM; in experiment [26] it was 0.012 nM; in experiment [27], 0.005 nM; in [28], 0.006 nM; in [29], 0.01 nM. Further, the EC50 was 5 nM in [10] and 0.01 nM in [11].

Source of the values: patent publication US20190055304A1 (published 2019).
